Consider five molecules from US8357523B2, “Beta-glucosidase variant enzymes and related polynucleotides” (Codexis, Inc., priority 2009, dated 2013).

What all share (type): biochemical
The nature of data set [1]: High throughput cellobiose assay: fold improvement in cellobiase activity of CelA variants over a control enzyme (Tables 2A-2D, 3, 5, 6, 7). As to conditions: for activity (e.g., thermoactivity) over the wildtype A. irakense β-glucosidase: assay of Example 7; for activity (e.g., thermoactivity) over the wildtype A. irakense β-glucosidase, demonstrated indirectly: shown by improvement over a chain of controls, of which Variant No. 5 was directly compared to the wildtype.

Data set [2] can be described thus: Enzyme stability: residual activity on pNPG after pre-incubation at high temperature and low pH. Conditions: residual activity on pNPG at pH 7, 30° C.; for % residual activity after 10 mins @ pH 5.5, 55° C.: pre-incubation 10 mins at pH 5.5, 55° C.; for % residual activity after 10 mins @ pH 5.5, 55° C. / % residual activity after 6 hours @ pH 5.5, 55° C.: 1 hr; for % residual activity after 1 hour @ pH 5.5, 55° C.: pre-incubation 1 hour at pH 5.5, 55° C.; for % residual activity after 6 hours @ pH 5.5, 55° C.: pre-incubation 6 hours at pH 5.5, 55° C. The method, then: Residual activity is determined by exposing the enzyme to stress conditions of elevated temperature for a period of time and then determining the β-glucosidase activity. The β-glucosidase activity of the enzyme exposed to stress conditions (“a”) is compared to that of a control in which the enzyme is not exposed to the stress conditions (“b”), and residual activity is equal to the ratio a/b. Exemplary conditions for determining thermostability are provided in Examples 9 and 13. In one embodiment the enzymes are exposed to stress conditions of 50° C. at pH 5.5 or 55° C. at pH 5.0 or 55° C. at pH 5.5, or 65° C. at pH 5.0 for about 1 hour, and assayed at 30° C., pH 7, for about 0.1 hour.
A colorimetric pNPG (p-nitrophenyl-(β-D-glucopyranoside)-based assay was used for measuring β-glucosidase activity. In a total volume of 100 μL, 20 μL clear media supernatant containing β-glucosidase enzyme was added to 4 mM pNPG (Sigma-Aldrich, Inc. St. Louis, Mo.) solution in 50 mM sodium phosphate buffer at pH6.5. The reactions were incubated at pH 6.5, 45° C. for 1 hour. The reaction mixture was quenched with 100 μL of 1M sodium carbonate pH 11 solution. The absorbance of the solution was measured at 405 nm to determine the conversion of pNPG to p-nitrophenol. The release of p-nitrophenol (ε=17,700 M−1 cm−1) was measured at 405 nm to calculate β-glucosidase activity. Detectable β-glucosidase activity was observed under high throughput screening conditions (pH 7, 50° C.).
Four CelA variants and wildtype CelA were characterized to determine their stabilities at high temperature (55° C.) and low pH (pH5.5) using the method of Example 5A. The samples containing various CelA variant enzymes were pre-incubated at pH 5.5, 55° C. for 0-6 hrs. The residual enzyme activity after the thermal challenge was measured using pNPG as substrate at pH 7, 30° C. for 1 hr. […] The mutations listed in the table are indicated relative to SEQ ID NO: 4, the wildtype CelA. These sequences included residues GTS prior to the N-terminus of SEQ ID NO: 4 (prepared as described in Example 1). […]

Data set [3] is described as follows: Activity profile at different temperatures and pH using cellobiose (10 g/L) as substrate. The method, then: β-glucosidase activity was also determined using a cellobiose assay, which used cellobiose as substrate. In a total volume of 100 μL, 25 μL clear media supernatant containing CelA enzyme was added to 10 g/L cellobiose (Fluka Cat. No. 22150, Sigma-Aldrich, Inc., St. Louis, Mo.) in 100 mM sodium phosphate buffer (pH 6-7) or sodium acetate buffer (pH 5-5.5). The reaction was incubated at 45-70° C. for an appropriate time (25 minutes to overnight depending on the enzyme concentration) while shaking. Glucose production was determined using an enzymatic glucose assay (K-GLUC, Megazyme, Ireland). 10 μl of each reaction was added to 190 μl GOPOD reagent (supplied as part of the K-GLUC assay kit). The reaction was incubated at 45° C. for 20 minutes and the absorbance of the solution was measured at 510 nm. The GOPOD reagent contains 50 mM Potassium phosphate buffer pH7.4, 0.011M p-hydroxybenzoic acid, 0.008% w/v sodium azide, glucose oxidase (>12,000 U/L), peroxidase (>650 U/L) and 80 mg/L 4-aminoantipyrine. The glucose oxidase enzyme in the reagent reacts with any glucose present in the sample and produces hydrogen peroxide which then reacts with the 4-aminoantipyrine to produce a quinoneimine dye in quantities proportionate with the amount of glucose present and can be measured spectrophotometrically at 510 nm. Detectable β-glucosidase activity was observed under high throughput screening conditions (i.e., pH 7, 50° C.).
The native CelA activity profile was investigated at different temperatures (40-55° C.) and pH (5.0-8.0) using cellobiose (10 g/L) as a substrate. The experimental and analytical procedures are described in Example 5.
The activity profiles for Variant Nos. 264, 366, 391, 463, and 529 were determined at different temperatures and pH using cellobiose (10 g/L) as a substrate. The experimental and analytical procedures are described in Example 5, incubating the variant with cellobiose at temperatures in the range of 45-80. The results are depicted in FIGS. 7-11. […] The temperature and pH profile for this variant is depicted in FIG. 7. […] The temperature and pH profile for this variant is depicted in FIG. 8. […] The temperature and pH profile for this variant is depicted in FIG. 9. […] (with the pH 6 optimum determined by extrapolation). The temperature and pH profile for this variant is depicted in FIG. 10. […] The temperature and pH profile for this variant is depicted in FIG. 11.

B1: Variant No. 5 (protein)
chain: STAIAQEGAAPAAILHPEKWPRPATQRLIDPAVEKRVDALLKQLSVEEKVGQVIQGDIGTITPEDLRKYPLGSILAGGNSGPNGDDRAPPKEWLDLADAFYRVSLEKRPGHTPIPVLFGIDAVHGHGNIGSATIFPHNIALGATRDPELLRRIGEVTAVEMAATGIDWTFAPALSVVRDDRWGRTYEGFSEDPEIVAAYSAAIVEGVQGKFGSKDFMAPGRIVASAKHFLADGGTDQGRDQGDARISEDELIRIHNAGYPPAIDAGVLTVMASFSSWQGIKHHGHKQLLTDVLKGQMGFNGFIVGDWNAHDQVPGCTKFNCPTSLIAGLDMYMAADSWKQLYENTLAQVKDGTIPMARLDDAVRRILRVKVLAGLFEKPAPKDRPGLPGLETLGSPEHRAVGREAVRKSLVLLKNDKGTLPLSPKARVLVAGDGADNIGKQSGGWTISWQGTGNRNDEFPGATSILGGIRDAVADAGGSVEFDVAGQYKTKPDVAIVVFGEEPYAEFQGDVETLEYQPDQKQDLALLKKLKDQGIPVVAVFLSGRPMWVNPELNASDAFVAAWLPGTEGGGVADVLFTDKAGKVQHDFAGKLSYSWPRTAAQTTVNRGDADYNPLFAYGYGLTYKDKSKVGTLPEESGVPAEARQNAGIYFRAGALRLPGRFL
For the molecule B1, the “activity (e.g., thermoactivity) over the wildtype A. irakense β-glucosidase” value in data set [1] was “improved activity”. Moreover, in data set [2], the “% residual activity after 10 mins @ pH 5.5, 55° C.” value stood at 0%; the “% residual activity after 1 hour @ pH 5.5, 55° C.” value worked out at 0%; the “% residual activity after 6 hours @ pH 5.5, 55° C.” value was found to be 0%.

B2: Variant No. 94 (protein)
chain: STAIAQEGAAPAAILHPEKWPRPATQRLIDPAVEKRVDALLKQLSVEEKVGQVIQGDIGTITPEDLRKYPLGSILAGGDSGPNGDDRAPPKEWLDLADAFYRVSLEKRPGHTPIPVLFGIDAVHGHGNIGSATIFPHNIALGMTRDPELLRRIGEVTAEEMAATGIDWTFAPALSVVRDDRWGRTYEGFSEDPEIVASYSAAIVEGVQGKYGSKDFMAPGRIVASAKHFLADGGTDQGRDQGDARISEDELIRIHNAGYPPAIDAGVLTVMASFSSWQGIKHHGHKQLLTDVLKGQMGFNGFIVGDWNAHDQVPGCTKFNCPTSLIAGLDMYMAADSWKQLYENTLAQVKDGTIPMARLDDAVRRILRVKVLAGLFEKPAPKDRPGLPGLETLGSPEHRAVGREAVRKSLVLLKNDKGTLPLSPKARVLVAGDGADNIGKQSGGWTISWQGTGNRNDEFPGATSILGGIRDAVADAGGSVEFDVAGQYKTKPDVAIVVFGEEPYAEFQGDVETLEYQPDQKQDLALLKKLKDQGIPVVAVFLSGRPMWVNPELNASDAFVAAWLPGTEGGGVADVLFTDKAGKVQHDFAGKLSYSWPRTAAQTTVNRGDADYNPLFAYGYGLTYKDKSKVGTLPEESGVPAEARQNAGIYFRAGALRLPGRFL
Take B2: the “activity (e.g., thermoactivity) over the wildtype A. irakense β-glucosidase” value in data set [1] was “improved activity”. Also, in data set [2], the “% residual activity after 10 mins @ pH 5.5, 55° C.” value is 3%; the “% residual activity after 1 hour @ pH 5.5, 55° C.” value was 0%; the “% residual activity after 6 hours @ pH 5.5, 55° C.” value is on record as 0%.

B3: Variant No. 366 (protein)
chain: SAAITQEGAAPAAMLHPEKWPRPATQRLIDPAVEKRVDALLKQLSVEEKVGQVIQGDIGTITPEDLRKYPLGSILAGGDSGPNGDDRAPPKEWLDLADAFYRVSLEKRPGHTPIPVLFGIDAVHGHNNIGSATIFPHNIALGMTRDPELLRRIGEVTAEEMAATGIDWTFAPALSVVRDDRWGRTYEGFSEDPEIVASYSAAIVEGFQGKYGSKDFMAPGRAVACAKHFLADGGTDQGRDQGDARISEDELIRIHNAGYPPAIDAGVLTVMASFSSWQGIKHHGHKQLLTDVLKGQMGFNGFIVGDWNAHDQVPGCTKFNCPTSLIAGLDMYMAADSWKQLYENTLAQVKDGTIPMARLDDAVRRILRVKVLAGLFEKPAPKDRPGLPGLETLGSPEHRAVGREAVRKSLVLLKNDKGTLPLSPKARVLVAGDGADNIGKQSGGWTISWQGTGNRNDEFPGATSILGGIRDAVADAGGSVEFDVAGQYKTKPDVAIVVFGEEPYAEFRGDVETLEYQPDQKQDLTLLKKLKDQGIPVVAVFLSGRPMWVNPELNASDAFVAAWLPGTEGGGVADVLFTDKAGKVQHDFAGKLSYSWPRTAAQTTVNRGDADYNPLFAYGYGLTYKDKSKVGTLPEESGVPAEARQN
modifications: catalytic domain; signal sequence F-10T
With B3, the “activity (e.g., thermoactivity) over the wildtype A. irakense β-glucosidase, demonstrated indirectly” value in data set [1] is “improved activity”. Also, in data set [3], the “pH of optimum activity” value was 6 pH and the “temperature of optimum activity” value worked out at 66 °C.

B4: Variant No. 391 (protein)
chain: SARITQEGAAPAAMLHPEKWPRPATQRLIDPAVEKRVDALLKQLSVEEKVGQVIQGDIGTITPEDLRKYPLGAILAGGDSGPNGDDRAPPKEWLDLADAFYRVSLEKRPGHTPIPVLFGIDAVHGHNNIGSATIFPHNIALGMTRDPELLRRIGEVTAEEMAATGIDWTFAPALSVPRDDRWGRTYEGFSEDPEIVASYSAAYVEGFQGKYGSKDFMAPGRAVACAKHFLADGGTDQGRDQGDARISEDELIRIHNAGYPPAIDAGVLTVMASFSSWQGIKHHGHKQLLTDVLKGQMGFNGFIVGDWNAHDQVPGCTKFNCPTSLIAGLDMYMAADSWKQLYENTLAQVKDGTIPMARLDDAVRRILRVKVLAGLFEKPAPKDRPGLPGLETLGSPEHRAVGREAVRKSLVLLKNDKGTLPLSPKARVLVAGDGADNIGKQSGGWTISWQGTGNRNDEFPGATSILGGIRDAVADAGGSVEFDVAGQYKTKPDVAIVVFGEEPYAEFRGDVETLEYQPDQKQDLTLLKKLKDQGIPVVAVFLSGRPMWVNPELNASDAFVAAWLPGTEGGGVADVLFTDKAGKVQHDFAGKLSYSWPRTAAQTTVNRGDADYNPLFAYGYGLTYKDKSKVGTLPEESGVPAEARQN
modifications: catalytic domain
As for B4, the “activity (e.g., thermoactivity) over the wildtype A. irakense β-glucosidase, demonstrated indirectly” value in data set [1] was “improved activity”. Further, in data set [3], the “pH of optimum activity” value amounted to 5.5 pH and the “temperature of optimum activity” value was found to be 69 °C.

B5: Variant No. 463 (protein)
chain: SARITQEGAAPAAMLHPEKWPRPATQRLIDPAVEKRVDALLKQLSVEEKVGQVIQGDIGTITPEDLRKYPLGAILAGGDSGPNGDDRAPPKEWLDLADAFYRVSLEKRPGHTPIPVLFGIDAVHGHNNIGSATIFPHNIALGMTRDPELLRRIGEVTAEEMAATGIDWNFAPALSVPRDDRWGRTYEGFSEDPEIVASYSAPYVEGFQGKYGSKDFMAPGRAVACAKHFLADGGTDQGRDQGDARISEDELIRIHNAGYPPAIDAGVLTVMLSFSSWQGIKHHGHKRLLTDVLKGQMGFNGFIVGDWNAHGQVPGCTKFNCPTSLIAGLDMYMAADSWKQLYENTLAQVKDGTIPMARLDDAVRRILRVKVLAGLFEKPAPKDRPGLPGLETLGSPEHRAVGREAVRKSLVLLKNDKGTLPLSPKARVLVAGDGADNIGKQSGGWTISWQGTGNRNDEFPGATSILGGIRDAVADAGGSVEFDVAGQYKTKPDVAIVVFGEEPYAEFRGDVGTLEYQPDQKQDLTLLKKLKDQGIPVVAVFLSGRPMWVNPELNASDAFVAAWLPGTEGGGVADVLFTDKAGKVQHDFAGKLSYSWPRTAAQTTVNRGDADYNPLFAYGYGLTYKDKSKVGTLPEESGVPAEARQN
modifications: catalytic domain
Take B5: in data set [1], the “activity (e.g., thermoactivity) over the wildtype A. irakense β-glucosidase, demonstrated indirectly” value is “improved activity”. Besides, the “temperature of optimum activity” value in data set [3] came to 69 °C. Also, in data set [3] (pH optimum determined by extrapolation), the “pH of optimum activity (determined by extrapolation)” value is recorded as 6 pH.
